{"source": "the DeepSol protein solubility set"}
{"experiment": "soluble on expression in E. coli; label from the status in PepcDB or PDB records"}
{"sequence": "MSLGLLNCLTGAALPLMESDVTSYVSGYALGLTASLTYGNLEAQPFQGLFVYPIDEYSTVVGFEAVIADRVVTIQLRDKAKLDRSHLDIQPATVTGNFPEEESPIAPGKVTLDEDLERVLFVVNLGTIAPMENVTVFISTSSELPTLPSGAVRVLLPAICAPTVPPSCTHRFGSSSPQPQGKDPHCFGTQTKDSYNRLCLATLLDTKVTNPMEYEFKFQLEIRGPCLLAGVESPTHEIRADAAPSAHSAKSIIITLAKKHTFDRPVEILLHPSEPHMPHVLVEKGDMTLGEYDQHLKGKADFIRGTKKDNSAERKTEVIRKRLHKDIPHHSVIMLNFCPDLQSVQPNPRKAHGEFIFLIDRSNSMSKTNIQCIKEAMLVALKSLMPACFFNIIGFGSTFKAVFASSRIYNEENLTMACDCIQRMQADMGGTNMLSPLKWVLRQPLRRGHPRLLFLITDGSVNNTGKVLELVRNHASSTRCYSFGIGPTVCYRLVKGLASVSKGSAEFLMEGERLQPKMVKSLKKAMAPVLSDVTVEWVFPETTEALISPVSTSSLFPGERLMGYGIVCDASLYISNSRSEGHHHHHH", "soluble on expression in E. coli": "not soluble"}
{"sequence": "GSDGTREFLTFEVPLNDSGSAGLGVSVKGNRSKENHADLGIFVKSIINGGAASKDGRLRVNDQLIAVNGESLLGKANQEAMETLRRSMSTEGNKRGMIQLIVARRISRCNE", "soluble on expression in E. coli": "soluble"}
{"sequence": "MYEVTKFGGEGKRLEDYREIIGDEALEAIKAKAENLKDKSFVHVNSTSFGGGVAEILHNLVPLMRDVGIDARWFVIEGTNEFFNVTKSFHNALQGNKELRLTEEMKKLYLEINKKNAEDIDLTQFDYVLIHDPQPAPLIEFYEKRQPWIWRCHIDLSDPNLEFWKFLRQFVEKYDRYIFHMEEYVQEDLNQEKVVIMPPSIDPLSEKNMELEHHHHHH", "soluble on expression in E. coli": "not soluble"}
{"sequence": "TYDSLKESTARDTGHLTLTTPGYFAKEEEMPLSNGLSHADEITKQLIGLSEVRGVQPRVEFSGLISNGSKSSIFIGIGVNEREFDMKGPFLDVRDGQTLSNIHASRYDASEPEVMLGVDLASNLSVNVGDWITLLATTTDGALNAYDFKVRGIYSTGVPELDKRQLYVHINSAQSLLGSDKVSALSVFLFDTCLTNKVEQQVATILNKQKPSFGDQEVEITPWQERAFFYLKVKDLYDR", "soluble on expression in E. coli": "not soluble"}
{"sequence": "MSLENCKKVNYERVEKERESGSSISIRNFKREAYDSSGQLQWELRANESFVYVNENKTTFYDIDFDQYEAGKFKSKLLAEKGEINHKTRLMLLEGKILLKTDDHKILTAKTMEYNMDTKKLVSDSEVSVSADGTTIRGIGLRADKDLNKFTILKPTAITQGGTNPLKAAGSPEGHHHHHH", "soluble on expression in E. coli": "soluble"}
{"sequence": "MCTQDEECSAPGGDKGKEKEEHTVVPRGKEEKEKKPGTKPSPISPAFKGTPKERPNCGKTKNETSGKKLRSNDVSPDVKDRLQLSEHGPSKTCIKDFQWLEDFITKMPCFHGFIGREDLMSVLKNVGDFLIRTSVQPNKHEVEKMKKNQADVKVLGNLSREKCAKKEKEKEEKLAGMGDVGRREFVISVYCKDKEKPATDKPQYTPIRNLVIKRDNGMVHVEPLRKFKTLTEFFGYYQKNSGICKETDFQLITPIPLSNWEFIHEDIALQQKKLGEGAFGEVRIGKMKLKSTKKTVEVAVKMLRNAEVVIREQVGELLHEARVMRMMDHKNVLRSYGIAVLKEPLYLMTEMCACGALREYLRENQETVTLAEKLFFVVGSSRGVQYLHSQKTIHRDLAVRNILLSEDRTPKISDFGLAKISERYEMKEQCKIPVRYLAPETLESFIFTTKTDVFSFGCVIWEIYENGNQPHDGKNAQTIRNLTKKNQFLKLTNSAPSELRKLIEERVFTSDPENRCSMTTIVQCAEKIEKPPVGMK", "soluble on expression in E. coli": "not soluble"}
{"sequence": "MSLVSLPKLSAKIIIRLIYIYQIGISPILGHHCRFSITCSQYGINSIRNFGILKGCWKTCIRILKCHPFNKNDNTQEGHHHHHH", "soluble on expression in E. coli": "soluble"}
{"sequence": "MEPPLTVGAWTMTADSTVTEPIAAAATTTIVADVAIVGGGLAGSLAAAVLARAGHRVALVDKRAVYPDEFRVEKIGGPQLEMFRRLGFIRGLASVACPYDQVLNVREGKVVDVSVGQAYGLPYAGLVAMARGQIPDPSSLIVDEVTAVTCSDDVQHLELASGRRLNARLVVLATGMAGALGYKLGIRRRVLAAGHSVSFGFTIVRRDGTPFDFKALTCYGERTSDGVDYLSLFPVPAGMRANLFMFRDPTDPVMRDLRRDTEATVLRLLPGLQPYLGDFRVTDRVQNWVMDLSVVEGHLQPGVVLIGDAFQTNCPAAGTGVARLLVDVERLCTEYAPRWLATEGMGKEKISEFYSDRDKIAADQQSLKMARFRQALTSRDDISWDVRRRLHFLRRSITHRVDQMRPGWLAQVRSALRALEHHHHHH", "soluble on expression in E. coli": "not soluble"}
{"sequence": "MGSDKIHHHHHHMEIKKGTWIIKKGFAEMFKGGVIMDVTSAEQAKIAEEAGAVAVMALERVPADIRKEGGVARMASIAKIREIMEAVSIPVMAKVRIGHIAEAKILEELGVDFIDESEVLTPADDRFHINKHEFKVPFVCGARDLGEALRRIAEGAAMIRTKGEAGTGNVVEAVKHMRRVMEQIKQVTKMEDEELVAYGKEIGAPVELLREVKRLGRLPVVNFAAGGVATPADAALMMMLGADGVFVGSGIFKSKDPRKMAKAMVLAVTYWDNPRILLKISEDIGEPMRGLDVEELEVRMQERGW", "soluble on expression in E. coli": "not soluble"}
{"sequence": "TMSHGFGVMAGINLTKNIGVQAEVNYYQINQKYADGNLNRDLTINYFNIPVLLSLNTNKAAPVNLNLVAGPQFGINAGSKFETSGNGNTDSTTAVVALRKGDVGVAYGAGLEFALNKSHSVRLDLGFRGFYGLVNMDSSTNGQGTYNVIVSASRKTYGGYAGITWMF", "soluble on expression in E. coli": "not soluble"}
{"sequence": "MLLKGLYKVEFETPRRKAVGVIFASDGRLHGGSSAFAYIGAYEQQGQTIQGTITARRHTSDPAIQSVFGVDEVRVDFHGSTIGDYAQVEGMAAEAPSLGFKALLTRISQ", "soluble on expression in E. coli": "not soluble"}
{"sequence": "MTITQRDASSADAICLSALGMQVFLDTYATQGIRESIAREALDAFSPQAFAHLLAEPATLIIVAESQGHLIGFAQFALRTDHPMLGIPTAAELQRLYVQERFTGRGVGRLLLEAAEQRAAAGNATLLWATVWVGNPRALGVYPRQGYEVKGSPRYVFQGETHENCLFAKAIVKAVR", "soluble on expression in E. coli": "not soluble"}
{"sequence": "MGSDKIHHHHHHMKRLITTGAAFLLAATLSACNGNNTSETQGDRTEQAETVQADLFSADSAYTFVQRQVNFGPRIPGTAPHRACGDWLVATLRSFGAAVQEQTAEIKAHDGTMLPMRNIIASYRPEATGRMLLMAHWDTRPVCDQDANPAMHTETFDGADDGGSGVGVLLEIARYLGQQKDLGMGIDIVFFDTEDYGSYGDDESWCLGSQYWSRNPHVAGYKAEAGILLDMVGAKGATFYWEYFSKSYAPGLISAVWQTAAALGYGNYFIQADGGALTDDHVPVIKNLGIPCIDIINYSSKNEHGFGDHWHTQRDNMQIIDKNVLDAVGETVIRYLDEQVKAASH", "soluble on expression in E. coli": "not soluble"}
{"sequence": "MGSDKIHHHHHHMTEITTLTQFLSTANTQFQVYDLGRRVQHIDMMAFSQIEALQAPYPSPIQGHAQFAIVFWDDSNQHFIWFLKLPLDERGLLSPAPRTQFIRMVIEALGSDPTQALSQDQQDTLANHPFAFKPSAEKLALFNALVRKQLGLPASAQYEFAYQYLSGQVSPERWQDVGLQGLADICVRAAALDHNEQLLNALEHSADEVKIALCQQLEHITLDAPLAERLLSAFYQGSPEQKLYYLRALASAPALAQQAIQYLDEQDALDDNALITIAGRNWTALKDDQTRKIYLEALAKQPQGFFNQIFADIVAIPAIRTQLLMALRDSERSQALANAIGGLFRVTKA", "soluble on expression in E. coli": "not soluble"}
{"sequence": "MENFEIWVEKYRPRTLDEVVGQDEVIQRLKGYVERKNIPHLLFSGPPGTGKTATAIALARDLFGENWRDNFIEMNASDERGIDVVRHKIKEFARTAPIGGAPFKIIFLDEADALTADAQAALRRTMEMYSKSCRFILSCNYVSRIIEPIQSRCAVFRFKPVPKEAMKKRLLEICEKEGVKITEDGLEALIYISGGDFRKAINALQGAAAIGEVVDADTIYQITATARPEEMTELIQTALKGNFMEARELLDRLMVEYGMSGEDIVAQLFREIISMPIKDSLKVQLIDKLGEVDFRLTEGANERIQLDAYLAYLSTLAKK", "soluble on expression in E. coli": "soluble"}
{"sequence": "PDPNRFDRDRLFNAVSRGVPEDLAGLPEYLSKTSKYLTDSEYTEGSTGKTCLMKAVLNLKDGVNACILPLLQIDRDSGNPQPLVNAQCTDDYYRGHSALHIAIEKRSLQCVKLLVENGANVHARACGRFFQKGQGTCFYFGELPLSLAACTKQWDVVSYLLENPHQPASLQATDSQGNTVLHALVMISDNSAENIALVTSMYDGLLQAGARLCPTVQLEDIRNLQDLTPLKLAAKEGKIEIFRHILQREFS", "soluble on expression in E. coli": "soluble"}
